The text below walks through data of patent US20210147563A1 (GENEUIN TECH, published 2021).

For assay [1], the target named is T1, DR4 expressed on the cell surface of cancer cells (HeLa, HCT-116) (human) (UniProt O00220).
T1 sequence (looked up): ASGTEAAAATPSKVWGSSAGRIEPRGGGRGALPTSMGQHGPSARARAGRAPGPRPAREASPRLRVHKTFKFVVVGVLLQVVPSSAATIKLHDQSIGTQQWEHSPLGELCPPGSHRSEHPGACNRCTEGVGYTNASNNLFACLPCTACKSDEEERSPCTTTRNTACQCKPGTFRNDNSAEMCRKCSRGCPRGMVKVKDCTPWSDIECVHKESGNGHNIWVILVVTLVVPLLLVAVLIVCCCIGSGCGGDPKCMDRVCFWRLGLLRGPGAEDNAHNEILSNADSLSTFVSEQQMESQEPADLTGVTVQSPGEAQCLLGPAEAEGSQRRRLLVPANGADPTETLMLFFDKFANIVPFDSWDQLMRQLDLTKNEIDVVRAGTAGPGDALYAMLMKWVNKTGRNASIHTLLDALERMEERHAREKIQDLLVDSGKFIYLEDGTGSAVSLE
In words: cell-based or functional assay.

Assay [2] concerns the target T2, DR4 expressed on the cell surface of cancer cells (HeLa, HCT-116) (human, UniProt O00220 24-468).
T2 construct: whole, on cells; also called death receptor 4; DR4 trimer
T2 sequence (looked up): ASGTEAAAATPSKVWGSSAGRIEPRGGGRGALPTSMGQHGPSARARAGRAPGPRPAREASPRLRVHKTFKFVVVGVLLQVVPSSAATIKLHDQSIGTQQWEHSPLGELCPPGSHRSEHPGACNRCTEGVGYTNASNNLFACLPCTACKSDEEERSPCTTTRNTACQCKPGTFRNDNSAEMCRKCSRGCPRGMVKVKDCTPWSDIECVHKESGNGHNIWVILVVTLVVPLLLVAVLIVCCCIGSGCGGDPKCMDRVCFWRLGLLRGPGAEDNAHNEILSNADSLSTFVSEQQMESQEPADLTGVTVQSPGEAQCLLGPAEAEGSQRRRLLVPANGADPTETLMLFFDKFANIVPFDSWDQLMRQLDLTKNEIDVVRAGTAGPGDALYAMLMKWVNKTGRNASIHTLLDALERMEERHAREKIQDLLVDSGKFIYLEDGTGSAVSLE
Nature of the assay: inferred from apoptosis (MTT) assay on DR4-expressing HeLa and HCT-116 cells against DR4-negative HEK293 cells; no direct binding assay. Here is the method:
To this end, apoptosis-inducing effects of secretory humanized DR4 scFv antibody recombinant protein were analyzed using HeLa cells, a cervical cancer cell line expressing DR4 on the cell surface, and HCT-116 cells, a colon cancer cell line. […] Each of these three cells was inoculated in a culture dish and cultured overnight, and then the secretory humanized DR4 scFv antibody recombinant protein was added to the culture medium, and the degree of death of the cells during culturing was determined by MTT method (Cyto X™ Cell viability assay kit, LPS solution, Korea).

B1: humanized DR4 scFv chimeric antigen receptor (CAR) (protein, part only; not given: hinge, transmembrane and signaling domains, not shown: a dimerising Fc or GST; small tags and cut ends)
chain, part: EVQLVESGGGLVQPGGSLRLSCSASGFTFSSYSMQWVRQAPGKGLEYVAGIRSDGRYTNYGAAVKGRATISRDNSKNTVYLQMNSLRAEDTAVYYCAKGAYGYCGSTCAPYLGQIDAWGQGTLVTVSSGSTSGSGKPGSGEGSTKGSYELTQPPSVSVSPGQTVRITCSGGRYTYGWFQQKPGQAPVTVIYGNDKRPSNIPSRFSGSTSGSTVTLTISGVQAEDEADYYCGGADFSAGLFGGGTKLTVL
B1: in assay [1], the cytotoxicity of CAR expressing lymphocytes on HeLa cells against HEK293 cells (CellTox Green fluorescence, effector:target 10:1, 3 days) was 2 to 3 times.

B2: secretory humanized DR4 scFv antibody recombinant protein (scFv)
scFv: EVQLVESGGGLVQPGGSLRLSCSASGFTFSSYSMQWVRQAPGKGLEYVAGIRSDGRYTNYGAAVKGRATISRDNSKNTVYLQMNSLRAEDTAVYYCAKGAYGYCGSTCAPYLGQIDAWGQGTLVTVSSGSTSGSGKPGSGEGSTKGSYELTQPPSVSVSPGQTVRITCSGGRYTYGWFQQKPGQAPVTVIYGNDKRPSNIPSRFSGSTSGSTVTLTISGVQAEDEADYYCGGADFSAGLFGGGTKLTVL
notes: Secreted from HEK293 cells transfected with pCMVFL-srkDR4 and purified through the His tag; no cleavage site is stated; also called secretory (soluble form) humanized DR4 scFv antibody fragment recombinant protein; humanized anti-DR4 scFv; not shown: Flag tag; IgG3 hinge; isoleucine zipper (ILZ) peptide; His6 tag
For the molecule B2, the binding result in assay [2] was “binds”.
